Measured values taken from PMC5209733, “U24 from Roseolovirus interacts strongly with Nedd4 WW Domains” (Scientific Reports, 2017).
Non-standard residues stand in square brackets, D forms with d. No end group written: not given here. pT = C[C@@H](OP(=O)(O)O)[C@H](N)C(=O)O

Legend:
[1] = biological target: T1, rNedd4-WW3/4 domain (third WW domain of rat Nedd4, GST tag removed) (rat, UniProt Q62940 452-499); experiment: ITC; peptide titrated into the cleaved WW domain (40 to 150 uM) in the cell; 10 mM sodium phosphate, pH 7.4, 25 °C; MicroCal VP-ITC; bimolecular interaction model; three runs (further runs with 100 mM and 500 mM NaCl told in words only); conditions: both partners purified
T1 construct: Nedd4 E3 ubiquitin ligase, rat, third WW domain (WW3/4, homologue of the fourth WW domain in human); Thrombin cleavage may leave vector residues at the N-terminus (surmised); source: E. coli BL21(DE3), purified (Glutathione Sepharose 4B, thrombin cleavage on the resin); 15N-labelled in M9 medium for NMR; not shown: GST, N-terminal, cleaved

[2] = biological target: T2, U24-6A protein (recombinant full length U24 from HHV-6A) (Human Herpes Virus type 6A (HHV-6A), UniProt Q69559 1-87); experiment: pull-down; GST-Nedd4 WW domain (1 to 2 nmole) immobilised on 20 uL Glutathione Sepharose 4B resin, incubated 1 hour at 4 °C with U24 protein in pull down buffer (20 mM KH2PO4, 75 mM NaCl, 0.5% Triton X-100, pH 7.4; 1 mM DTT for U24-7); SDS-PAGE, silver stain; conditions: both partners purified
T2 construct: U24 protein of Human Herpes Virus type 6A (HHV-6A), full length
T2 sequence: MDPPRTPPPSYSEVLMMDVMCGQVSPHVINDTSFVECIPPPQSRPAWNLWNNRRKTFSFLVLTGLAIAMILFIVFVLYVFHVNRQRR

Binder	Kd [1] [µM]	dH [1] [kcal/mol]	binding result [2]
MDPPRTPPPSYSEVL (U24 protein of Human Herpes Virus type 6A (HHV-6A), first 15 residues; source: purified peptide) [U24-6A peptide (15-mer, N-terminus of U24 from HHV-6A)]	43	-11	
MDPPR[pT]PPPSYSEVL (U24 protein of Human Herpes Virus type 6A (HHV-6A), 15-mer of the N-terminus with phospho-threonine at Thr6; source: purified peptide) [pU24-6A peptide (15-mer, N-terminus of U24 from HHV-6A phosphorylated at Thr6)]	13.5	-12.9	
PVDSNDLGPLPPGWEERTHTDGRVFFINHNIKKTQWEDPRMQNVAITG (domain or fragment, Nedd4 E3 ubiquitin ligase, rat, third WW domain (WW3/4, homologue of the fourth WW domain in human); Plasmid was a gift from J. D. Forman-Kay; source: E. coli BL21(DE3), purified (Glutathione Sepharose 4B, eluted with glutathione); not shown: GST, N-terminal, kept) [GST-rNedd4-WW3/4 (third WW domain of rat Nedd4 fused to the C-terminus of GST)]			binds
QSFLPPGWEMRIAPNGRPFFIDHNTKTTTWEDPRLKFPVHMRSK (domain or fragment, Nedd4-like protein (Nedd4L), human, cDNA clone KIAA0439, third WW domain (WW3*); Cloned into BamHI and XhoI sites of pGEX-4T2; source: E. coli BL21(DE3), purified (Glutathione Sepharose 4B, eluted with glutathione); not shown: GST, N-terminal, kept) [GST-hNedd4L-WW3* (third WW domain of human Nedd4-like protein fused to the C-terminus of GST)]			binds
